Results reported in article PMC5030187 (Biochemistry, 2016).

Biological target: the molecule itself
Assay: crystal structure

B1: Ag(I)-bound periplasmic sensor domain of E. coli histidine kinase CusS, CusS(39-187) (domain or fragment, UniProt P77485 39-187, looked up)
chain: VKVHFAEQDINDLKEISATLERVLNHPDETQARRLMTLEDIVSGYSNVLISLADSQGKTVYHSPGAPDIREFTRDAIPDKDAQGGEVYLLSGPTMMMPGHGHGHMEHSNWRMINLPVGPLVDGKPIYTLYIALSIDFHLHYINDLMNKL
  stoichiometry N: 2
